Article PMC1635325 (Nucleic Acids Research, 2006)

B1: FLAG-GidA (natural protein, E. coli, UniProt P0A6U3 1-629, looked up)
chain: MFYPDPFDVIIIGGGHAGTEAAMAAARMGQQTLLLTHNIDTLGQMSCNPAIGGIGKGHLVKEVDALGGLMAKAIDQAGIQFRILNASKGPAVRATRAQADRVLYRQAVRTALENQPNLMIFQQAVEDLIVENDRVVGAVTQMGLKFRAKAVVLTVGTFLDGKIHIGLDNYSGGRAGDPPSIPLSRRLRELPLRVGRLKTGTPPRIDARTIDFSVLAQQHGDNPMPVFSFMGNASQHPQQVPCYITHTNEKTHDVIRSNLDRSPMYAGVIEGVGPRYCPSIEDKVMRFADRNQHQIFLEPEGLTSNEIYPNGISTSLPFDVQMQIVRSMQGMENAKIVRPGYAIEYDFFDPRDLKPTLESKFIQGLFFAGQINGTTGYEEAAAQGLLAGLNAARLSADKEGWAPARSQAYLGVLVDDLCTLGTKEPYRMFTSRAEYRLMLREDNADLRLTEIGRELGLVDDERWARFNEKLENIERERQRLKSTWVTPSAEAAAEVNAHLTAPLSREASGEDLLRRPEMTYEKLTTLTPFAPALTDEQAAEQVEIQVKYEGYIARQQDEIEKQLRNENTLLPATLDYRQVSGLSNEVIAKLNDHKPASIGQASRISGVTPAAISILLVWLKKQGMLRRSA

Legend:
[1] = biological target: B1; assay: native gel or EMSA
[2] = biological target: the molecule itself; assay: SEC

Binder	stoichiometry N [1]	stoichiometry N [2]
recombinant MnmE (rMnmE, 53 kDa) (natural protein, E. coli, UniProt P25522 1-454, looked up) MSDNDTIVAQATPPGRGGVGILRISGFKAREVAETVLGKLPKPRYADYLPFKDADGSVLDQGIALWFPGPNSFTGEDVLELQGHGGPVILDLLLKRILTIPGLRIARPGEFSERAFLNDKLDLAQAEAIADLIDASSEQAARSALNSLQGAFSARVNHLVEALTHLRIYVEAAIDFPDEEIDFLSDGKIEAQLNDVIADLDAVRAEARQGSLLREGMKVVIAGRPNAGKSSLLNALAGREAAIVTDIAGTTRDVLREHIHIDGMPLHIIDTAGLREASDEVERIGIERAWQEIEQADRVLFMVDGTTTDAVDPAEIWPEFIARLPAKLPITVVRNKADITGETLGMSEVNGHALIRLSARTGEGVDVLRNHLKQSMGFDTNMEGGFLARRRHLQALEQAAEHLQQGKAQLLGAWAGELLAEELRLAQQNLSEITGEFTSDDLLGRIFSSFCIGK	1 MnmE per GidA (α2β2, 2:2)	–
B1	–	2
